Measured values as given in PMC12343972 (Nature Communications, 2025).

T1: S. cerevisiae Rad50-E1235Q (S. cerevisiae, UniProt P12753, E1235Q)
T1 sequence: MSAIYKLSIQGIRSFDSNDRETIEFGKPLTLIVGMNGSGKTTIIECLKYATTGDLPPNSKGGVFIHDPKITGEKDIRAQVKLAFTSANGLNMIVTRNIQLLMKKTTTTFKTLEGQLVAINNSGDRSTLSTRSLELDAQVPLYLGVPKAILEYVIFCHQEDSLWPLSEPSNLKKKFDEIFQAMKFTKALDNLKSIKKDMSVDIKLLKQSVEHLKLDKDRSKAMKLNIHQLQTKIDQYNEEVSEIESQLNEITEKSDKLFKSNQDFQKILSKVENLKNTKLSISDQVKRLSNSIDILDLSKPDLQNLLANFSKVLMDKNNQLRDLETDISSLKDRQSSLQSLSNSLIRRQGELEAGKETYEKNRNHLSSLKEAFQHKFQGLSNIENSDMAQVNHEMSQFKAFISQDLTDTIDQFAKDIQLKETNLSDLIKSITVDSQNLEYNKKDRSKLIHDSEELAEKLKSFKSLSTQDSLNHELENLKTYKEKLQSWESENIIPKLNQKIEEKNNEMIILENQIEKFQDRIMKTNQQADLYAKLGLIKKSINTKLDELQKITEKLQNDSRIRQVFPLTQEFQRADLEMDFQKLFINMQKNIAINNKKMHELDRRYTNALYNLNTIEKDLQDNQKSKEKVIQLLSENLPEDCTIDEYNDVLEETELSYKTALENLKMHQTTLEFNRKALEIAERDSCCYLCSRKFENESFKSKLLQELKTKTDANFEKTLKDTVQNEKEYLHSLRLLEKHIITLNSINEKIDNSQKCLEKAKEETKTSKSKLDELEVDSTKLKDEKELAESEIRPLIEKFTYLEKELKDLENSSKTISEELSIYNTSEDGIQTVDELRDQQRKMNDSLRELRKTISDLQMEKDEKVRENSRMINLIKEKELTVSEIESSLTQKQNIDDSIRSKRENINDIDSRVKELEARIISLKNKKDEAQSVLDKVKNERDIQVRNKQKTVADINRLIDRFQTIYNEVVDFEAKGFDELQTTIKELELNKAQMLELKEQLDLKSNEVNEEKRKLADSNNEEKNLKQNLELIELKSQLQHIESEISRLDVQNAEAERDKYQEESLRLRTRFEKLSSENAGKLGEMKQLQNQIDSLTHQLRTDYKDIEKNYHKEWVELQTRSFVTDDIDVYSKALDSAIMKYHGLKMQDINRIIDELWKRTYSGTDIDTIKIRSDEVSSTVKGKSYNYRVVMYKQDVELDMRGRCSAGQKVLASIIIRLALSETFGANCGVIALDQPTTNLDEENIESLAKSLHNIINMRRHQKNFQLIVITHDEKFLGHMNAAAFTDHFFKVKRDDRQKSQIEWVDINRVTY

B1: 83-mer dsDNA (cryo-EM) (dsDNA)
DNA 1: TTGATAAGAGGTCATTTTTGCGGATGGCTTAGAGCTTAATTGCTGAATCTGGTGCTGTAGCTCAACATGTTTTAAATATGCAA
DNA 2: TTGCATATTTAAAACATGTTGAGCTACAGCACCAGATTCAGCAATTAAGCTCTAAGCCATCCGCAAAAATGACCTCTTATCAA
B2: S. cerevisiae Mre11 with a C-terminal 1xFLAG tag (natural protein)
chain: MDYPDPDTIRILITTDNHVGYNENDPITGDDSWKTFHEVMMLAKNNNVDMVVQSGDLFHVNKPSKKSLYQVLKTLRLCCMGDKPCELELLSDPSQVFHYDEFTNVNYEDPNFNISIPVFGISGNHDDASGDSLLCPMDILHATGLINHFGKVIESDKIKVVPLLFQKGSTKLALYGLAAVRDERLFRTFKDGGVTFEVPTMREGEWFNLMCVHQNHTGHTNTAFLPEQFLPDFLDMVIWGHEHECIPNLVHNPIKNFDVLQPGSSVATSLCEAEAQPKYVFILDIKYGEAPKMTPIPLETIRTFKMKSISLQDVPHLRPHDKDATSKYLIEQVEEMIRDANEETKQKLADDGEGDMVAELPKPLIRLRVDYSAPSNTQSPIDYQVENPRRFSNRFVGRVANGNNVVQFYKKRSPVTRSKKSGINGTSISDRDVEKLFSESGGELEVQTLVNDLLNKMQLSLLPEVGLNEAVKKFVDKDEKTALKEFISHEISNEVGILSTNEEFLRTDDAEEMKALIKQVKRANSVRPTPPKENDETNFAFNGNGLDSFRSSNREVRTGSPDITQSHVDNESRITHISQAESSKPTSKPKRVRTATKKKIPAFSDSTVISDAENELGDNNDAQDDVDIDENDIIMVSTDEEDASYGLLNGRKTKTKTRPAASTKTASRRGKGRASRTPKTDILGSLLAKKRK

Key:
[1] = target: Rad50 E1235Q (MREQ complex);Mre11 (Saccharomyces cerevisiae;Saccharomyces …, UniProt P12753;P32829 1-1312;1-692, E1235Q|); assay: cryo-EM 3.2 A
[2] = target: T1, S. cerevisiae Rad50-E1235Q; assay: cryo-EM structure

Binder | binding result [1] | binding result [2]
B1 | binds | 
B2 |  | binds
